{
  "source": "paper PMC3154423",
  "experiment_in_all_cases": "ITC",
  "key": {"[1]": {"target": "Jun bZIP R270A;Fos bZIP K148A (human;human, UniProt P05412;P01100 252-315;137-200, R270A|K148A)", "sequence (P05412 252-315 R270A, chain 1 of 2)": "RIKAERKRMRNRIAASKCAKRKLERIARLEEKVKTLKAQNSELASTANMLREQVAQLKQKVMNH", "sequence (P01100 137-200 K148A, chain 2 of 2)": "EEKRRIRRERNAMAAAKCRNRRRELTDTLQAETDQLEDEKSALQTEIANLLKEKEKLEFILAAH"}, "[2]": {"target": "Jun bZIP K273A;Fos bZIP K148A (human;human, UniProt P05412;P01100 252-315;137-200, K273A|K148A)", "sequence (P05412 252-315 K273A, chain 1 of 2)": "as the sequence (P05412 252-315 R270A, chain 1 of 2) above, with A19R, K22A counted along it", "sequence (P01100 137-200 K148A, chain 2 of 2)": "as the sequence (P01100 137-200 K148A, chain 2 of 2) above"}, "Jun-Jun bZIP K268A": {"target": "Jun-Jun bZIP K268A (human, UniProt P05412 252-315, K268A)", "sequence (P05412 252-315 K268A)": "as the sequence (P05412 252-315 R270A, chain 1 of 2) above, with K17A, A19R counted along it"}, "[3]": {"target": "Jun bZIP K258A;Fos bZIP R146A (human;human, UniProt P05412;P01100 252-315;137-200, K258A|R146A)", "sequence (P05412 252-315 K258A, chain 1 of 2)": "as the sequence (P05412 252-315 R270A, chain 1 of 2) above, with K7A, A19R counted along it", "sequence (P01100 137-200 R146A, chain 2 of 2)": "as the sequence (P01100 137-200 K148A, chain 2 of 2) above, with R10A, A12K counted along it"}, "[4]": {"target": "Jun bZIP K268A;Fos bZIP R155A (human;human, UniProt P05412;P01100 252-315;137-200, K268A|R155A)", "sequence (P05412 252-315 K268A, chain 1 of 2)": "as the sequence (P05412 252-315 R270A, chain 1 of 2) above, with K17A, A19R counted along it", "sequence (P01100 137-200 R155A, chain 2 of 2)": "as the sequence (P01100 137-200 K148A, chain 2 of 2) above, with A12K, R19A counted along it"}, "[5]": {"target": "Jun bZIP R259A;Fos bZIP R155A (human;human, UniProt P05412;P01100 252-315;137-200, R259A|R155A)", "sequence (P05412 252-315 R259A, chain 1 of 2)": "as the sequence (P05412 252-315 R270A, chain 1 of 2) above, with R8A, A19R counted along it", "sequence (P01100 137-200 R155A, chain 2 of 2)": "as the sequence (P01100 137-200 K148A, chain 2 of 2) above, with A12K, R19A counted along it"}, "[6]": {"target": "Jun bZIP R259A;Fos bZIP R158A (human;human, UniProt P05412;P01100 252-315;137-200, R259A|R158A)", "sequence (P05412 252-315 R259A, chain 1 of 2)": "as the sequence (P05412 252-315 R270A, chain 1 of 2) above, with R8A, A19R counted along it", "sequence (P01100 137-200 R158A, chain 2 of 2)": "as the sequence (P01100 137-200 K148A, chain 2 of 2) above, with A12K, R22A counted along it"}, "[7]": {"target": "Jun bZIP R259A;Fos bZIP R146A (human;human, UniProt P05412;P01100 252-315;137-200, R259A|R146A)", "sequence (P05412 252-315 R259A, chain 1 of 2)": "as the sequence (P05412 252-315 R270A, chain 1 of 2) above, with R8A, A19R counted along it", "sequence (P01100 137-200 R146A, chain 2 of 2)": "as the sequence (P01100 137-200 K148A, chain 2 of 2) above, with R10A, A12K counted along it"}, "[8]": {"target": "Jun bZIP K273A;Fos bZIP R158A (human;human, UniProt P05412;P01100 252-315;137-200, K273A|R158A)", "sequence (P05412 252-315 K273A, chain 1 of 2)": "as the sequence (P05412 252-315 R270A, chain 1 of 2) above, with A19R, K22A counted along it", "sequence (P01100 137-200 R158A, chain 2 of 2)": "as the sequence (P01100 137-200 K148A, chain 2 of 2) above, with A12K, R22A counted along it"}, "[9]": {"target": "Jun bZIP R272A;Fos bZIP R144A (human;human, UniProt P05412;P01100 252-315;137-200, R272A|R144A)", "sequence (P05412 252-315 R272A, chain 1 of 2)": "as the sequence (P05412 252-315 R270A, chain 1 of 2) above, with A19R, R21A counted along it", "sequence (P01100 137-200 R144A, chain 2 of 2)": "as the sequence (P01100 137-200 K148A, chain 2 of 2) above, with R8A, A12K counted along it"}, "[10]": {"target": "Jun bZIP R270A;Fos bZIP R146A (human;human, UniProt P05412;P01100 252-315;137-200, R270A|R146A)", "sequence (P05412 252-315 R270A, chain 1 of 2)": "as the sequence (P05412 252-315 R270A, chain 1 of 2) above", "sequence (P01100 137-200 R146A, chain 2 of 2)": "as the sequence (P01100 137-200 K148A, chain 2 of 2) above, with R10A, A12K counted along it"}, "[11]": {"target": "Jun bZIP R272A;Fos bZIP R157A (human;human, UniProt P05412;P01100 252-315;137-200, R272A|R157A)", "sequence (P05412 252-315 R272A, chain 1 of 2)": "as the sequence (P05412 252-315 R270A, chain 1 of 2) above, with A19R, R21A counted along it", "sequence (P01100 137-200 R157A, chain 2 of 2)": "as the sequence (P01100 137-200 K148A, chain 2 of 2) above, with A12K, R21A counted along it"}, "[12]": {"target": "Jun bZIP R270A;Fos bZIP R158A (human;human, UniProt P05412;P01100 252-315;137-200, R270A|R158A)", "sequence (P05412 252-315 R270A, chain 1 of 2)": "as the sequence (P05412 252-315 R270A, chain 1 of 2) above", "sequence (P01100 137-200 R158A, chain 2 of 2)": "as the sequence (P01100 137-200 K148A, chain 2 of 2) above, with A12K, R22A counted along it"}, "[13]": {"target": "Jun bZIP R259A;Fos bZIP R157A (human;human, UniProt P05412;P01100 252-315;137-200, R259A|R157A)", "sequence (P05412 252-315 R259A, chain 1 of 2)": "as the sequence (P05412 252-315 R270A, chain 1 of 2) above, with R8A, A19R counted along it", "sequence (P01100 137-200 R157A, chain 2 of 2)": "as the sequence (P01100 137-200 K148A, chain 2 of 2) above, with A12K, R21A counted along it"}, "[14]": {"target": "Jun bZIP K273A;Fos bZIP R157A (human;human, UniProt P05412;P01100 252-315;137-200, K273A|R157A)", "sequence (P05412 252-315 K273A, chain 1 of 2)": "as the sequence (P05412 252-315 R270A, chain 1 of 2) above, with A19R, K22A counted along it", "sequence (P01100 137-200 R157A, chain 2 of 2)": "as the sequence (P01100 137-200 K148A, chain 2 of 2) above, with A12K, R21A counted along it"}, "[15]": {"target": "Jun bZIP R261A;Fos bZIP R157A (human;human, UniProt P05412;P01100 252-315;137-200, R261A|R157A)", "sequence (P05412 252-315 R261A, chain 1 of 2)": "as the sequence (P05412 252-315 R270A, chain 1 of 2) above, with R10A, A19R counted along it", "sequence (P01100 137-200 R157A, chain 2 of 2)": "as the sequence (P01100 137-200 K148A, chain 2 of 2) above, with A12K, R21A counted along it"}},
  "data": [
    {"binder": "TRE duplex 15-mer (dsDNA) DNA 1: CGCGTGACTCACCCC DNA 2: GGGGTGAGTCACGCG", "values": [
      {"measurement": "Kd", "setting": "[1]", "result": "1900 ± 120", "unit": "nM"},
      {"measurement": "Kd", "setting": "[2]", "result": "760 ± 10", "unit": "nM"},
      {"measurement": "Kd", "setting": "Jun-Jun bZIP K268A", "result": "400 ± 20", "unit": "nM"},
      {"measurement": "Kd", "setting": "[3]", "result": "660 ± 10", "unit": "nM"},
      {"measurement": "Kd", "setting": "[4]", "result": "1390 ± 80", "unit": "nM"},
      {"measurement": "Kd", "setting": "[5]", "result": "5750 ± 90", "unit": "nM"},
      {"measurement": "Kd", "setting": "[6]", "result": "2160 ± 130", "unit": "nM"},
      {"measurement": "Kd", "setting": "[7]", "result": "2260 ± 140", "unit": "nM"},
      {"measurement": "Kd", "setting": "[8]", "result": "680 ± 30", "unit": "nM"},
      {"measurement": "Kd", "setting": "[9]", "result": "3720 ± 360", "unit": "nM"},
      {"measurement": "Kd", "setting": "[10]", "result": "1450 ± 130", "unit": "nM"},
      {"measurement": "Kd", "setting": "[11]", "result": "430 ± 20", "unit": "nM"},
      {"measurement": "Kd", "setting": "[12]", "result": "1540 ± 50", "unit": "nM"},
      {"measurement": "Kd", "setting": "[13]", "result": "3050 ± 120", "unit": "nM"},
      {"measurement": "Kd", "setting": "[14]", "result": "1300 ± 80", "unit": "nM"},
      {"measurement": "Kd", "setting": "[15]", "result": "890 ± 30", "unit": "nM"}
    ]}
  ]
}
